T1: IRBP 271-290 (P2) peptide on I-A^b (mouse)
T1 peptide: QTWEGSGVLPCVG

B1: 1 (TCR)
alpha TRAV12D-3 TRAJ13 CDR3: CALRAGSGTYQRF
beta TRBV3 TRBJ2-7 CDR3: CASSLAGTGVYEQYF
B2: 3 (TCR)
alpha TRAV16N TRAJ15 CDR3: CAMREGGGGRALIF
beta TRBV15 TRBJ2-3 CDR3: CASSWGRGAETLYF
B3: 5 (TCR)
alpha TRAV9-2 TRAJ31 CDR3: CVLSAGNNRIFF
beta TRBV20 TRBJ2-2 CDR3: CGASGPANTGQLYF
B4: 4 (TCR)
alpha TRAV9-4 TRAJ31 CDR3: CAVSPHSNNRIFF
beta TRBV2 TRBJ2-7 CDR3: CASSQEGLGGLGEQYF
B5: 2 (TCR)
alpha TRAV12-2 TRAJ47 CDR3: CALSVYANKMIF
beta TRBV23 TRBJ2-4 CDR3: CSSSQTTNQNTLYF

Target: T1, IRBP 271-290 (P2) peptide on I-A^b
Assay: multimer staining

binding result	Binder
recognises	B1
recognises	B2
recognises	B3
recognises	B4
recognises	B5
